# Assay results from patent US20210386836.
# B1: PrtISS-HT (protein)
# chain: MRKKWVATAIIALASGSTVFLSQTSSVEAAIGETSVQNVKVSVAKNESDSQKFNNSQNLEQKTPQAAAANQNGSQVQNDHTETQLQNQQTTQSQVTQAHTEENNASSIPEPANQADHVKGNVQSAWDQGYKGQNTVVAVIDSGADTSHKDFQTMPSNPKLKQEDVQSKIDQQGYGKYVNEKFPYVYNYADRDNDYIKSDDNNQXNDSPHGQHVSGIIAADGHPEGDQQYVVGVAPEAQLMQLRVFGQFSDEKTDDVARAIYDATNLGADVIQMSLGQGVADQQLTNIEQKAVQYAIDHGVFVSISASNNGNSASVDNPSKVTAKGYGSGSEAGNYEPLNSGTVANPGASKNALTVAAETSGTGKDSDMASFSSWGPLSDFSLKPDLSAPGYQVVSTVNDNQYQTMSGTSMAGPFAAGSAALVIQRLKQTNPELKGAELVAATKALLMNSAKVQTQNGYTTPVSPRRQGAGQIDVGAATANPVYVTAADGTSSLSLRQVDEKTTFTLTFHNLTDQEQSYSFNDLGGGYTEQRDPDSGVFHEVQLAGAHVNGVGNFTLAPKEVKDLQYTLDLQGLNKNQPVEGWLHFTNDKDKSTVVVPYLAYYGDLTSENVFDQNANEEKPDIQGNRFVNENNYPLGVTDQESLKQLVNVDSDYNWQEVAKLYESGKVAFSPNDDHQSDLIKPYAYLKQNVKDLKVEILDAKGNVVRVVSDVQGVDKSYDESGVTKDASLSVSMRDNPDAFEWDGKVYDTKTGQMVTAPDGQYTYRFVATLWNEGPNQKQTADFPVVVDTQAPSLSVKYDSATHTLSGNYEDKGAGFTDYSYVTVQVNDKVFGYKLNEGESGFDNSEKTKGHFNFTLSSDALDALSGSLNKVSVTLSDVANNTTVKTVDVPAVKDQPAVSVWNATEGVEFNKNSKDYNKENDTYTLYGSAAQDFYLNGALVQVRDGKYEVPVKTTTQDLVFSTDQAGKNVLKSFTTFTPKAFFNWQNVDGFDGNFGVNIYSVKTNDPNNAVVQAAVPLGKNVKAYAQDYFTGEVYKGQVENGVATFHVHTSINQGEDGIFKRALLTGWSEVDGPAYNDKQVTSKAGVASSNHLGVYYTTDKVNRKVYTDRADLGVDVQDEAADLSSFGPTAYPGHALADLTTRTDPNPAIHFDYLNDNDTTRFGQNAVTDGYYDSVTKKFTVTGHVDPEVKSLTVLGDSSDENAPQNQVKLGKDGKFSFSFTTENVGQRPVAYIYTDQNGQKVRGTLNVVLDTVAPTLNVDQVNGNELEVKTNNPLFKLSGVVNDNLDGYRLYVNGNNIYREFLNSGYNKLAGLNTDGTDVNPYGPHNFEESFNLNDDNNQPTTHVFTIYVVDQVGNKVEKKIAVNYDPDYVAPRHHHHHH
# modifications: not fully specified; X: residue not identified in the source
# Molecular target: C3a, P01024
# Sequence (P01024 672-748): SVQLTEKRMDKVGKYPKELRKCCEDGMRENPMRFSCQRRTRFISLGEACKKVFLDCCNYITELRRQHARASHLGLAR
protein,measurement,value
B1,proteolytic degradation assay (SDS-PAGE),displayed activity against hC3a
